Results published in PMC9508527, “Two-component carnitine monooxygenase from Escherichia coli: functional characterization, inhibition and mutagenesis of the molecular interface” (Bioscience Reports, 2022).
Changes are numbered by the printed parent chain.

Tests used:
Assay in all cases: cell-based or functional assay
YeaW variant D135S = target: T1, YeaW variant D135S (E. coli, UniProt P0ABR7 1-374, D135S)
T1 sequence (looked up): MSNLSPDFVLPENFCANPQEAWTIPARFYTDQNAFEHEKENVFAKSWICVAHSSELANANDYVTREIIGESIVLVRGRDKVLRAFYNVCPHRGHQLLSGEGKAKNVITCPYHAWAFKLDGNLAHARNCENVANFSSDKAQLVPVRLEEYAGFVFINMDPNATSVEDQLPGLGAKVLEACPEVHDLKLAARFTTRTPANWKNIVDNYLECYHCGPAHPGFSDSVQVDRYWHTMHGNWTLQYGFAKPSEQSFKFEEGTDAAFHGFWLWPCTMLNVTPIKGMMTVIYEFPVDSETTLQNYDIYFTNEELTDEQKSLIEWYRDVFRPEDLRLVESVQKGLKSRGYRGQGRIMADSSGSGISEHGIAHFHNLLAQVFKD

YeaW variant D135K = target: T2, YeaW variant D135K (E. coli, UniProt P0ABR7 1-374, D135K)
T2 sequence (looked up): T1 sequence (looked up) with S135K

YeaW variant K138S = target: T3, YeaW variant K138S (E. coli, UniProt P0ABR7 1-374, K138S)
T3 sequence (looked up): T1 sequence (looked up) with S135D, K138S

YeaW variant E330S = target: T4, YeaW variant E330S (E. coli, UniProt P0ABR7 1-374, E330S)
T4 sequence (looked up): T1 sequence (looked up) with S135D, E330S

YeaW variant K104S = target: T5, YeaW variant K104S (E. coli, UniProt P0ABR7 1-374, K104S)
T5 sequence (looked up): T1 sequence (looked up) with K104S, S135D

YeaW variant K104E = target: T6, YeaW variant K104E (E. coli, UniProt P0ABR7 1-374, K104E)
T6 sequence (looked up): T1 sequence (looked up) with K104E, S135D

YeaW variant R83K = target: T7, YeaW variant R83K (E. coli, UniProt P0ABR7 1-374, R83K)
T7 sequence (looked up): T1 sequence (looked up) with R83K, S135D

B1: YeaX, reductase component of carnitine monooxygenase from E. coli (enzyme, UniProt P76254 1-321, looked up)
chain: MSDYQMFEVQVSQVEPLTEQVKRFTLVATDGKPLPAFTGGSHVIVQMSDGDNQYSNAYSLLSSPHDTSCYQIAVRLEENSRGGSRFLHQQVKVGDRLTISTPNNLFALIPSARKHLFIAGGIGITPFLSHMAELQHSDVDWQLHYCSRNPESCAFRDELVQHPQAEKVHLHHSSTGTRLELARLLADIEPGTHVYTCGPEALIEAVRSEAARLDIAADTLHFEQFAIEDKTGDAFTLVLARSGKEFVVPEEMTILQVIENNKAAKVECLCREGVCGTCETAILEGEADHRDQYFSDEERASQQSMLICCSRAKGKRLVLDL
For B1, the “L-carnitine depletion activity (wild type = 100%)” value (YeaW variant D135S) was 106%, the “O2 depletion activity (wild type = 100%)” value (YeaW variant D135S) was 106% and the “L-carnitine depletion activity (wild type = 100%)” value (YeaW variant D135K) was 94%. The “O2 depletion activity (wild type = 100%)” value (YeaW variant D135K) was 97%, the “L-carnitine depletion activity (wild type = 100%)” value (YeaW variant K138S) was 96% and the “O2 depletion activity (wild type = 100%)” value (YeaW variant K138S) was 97%. For the same binder, the “L-carnitine depletion activity (wild type = 100%)” value (YeaW variant E330S) was 92%, the “O2 depletion activity (wild type = 100%)” value (YeaW variant E330S) was 85% and the “L-carnitine depletion activity (wild type = 100%)” value (YeaW variant K104S) was 70%. The “O2 depletion activity (wild type = 100%)” value (YeaW variant K104S) was 66%, the “L-carnitine depletion activity (wild type = 100%)” value (YeaW variant K104E) was 6% and the “O2 depletion activity (wild type = 100%)” value (YeaW variant K104E) was 12%. For the same binder, the “L-carnitine depletion activity (wild type = 100%)” value (YeaW variant R83K) was 76% and the “O2 depletion activity (wild type = 100%)” value (YeaW variant R83K) was 79%.
